Laboratory results from article PMC9482650, “Quantitative fragmentomics allow affinity mapping of interactomes” (Nature Communications, 2022).

Experiments:
Assay in all cases: holdup assay
Design in all cases: key: below the threshold = too weak to quantify, mostly under pKd 3.1 to 4
[1] = biological target: T1, ARHGAP21, Q5T5U3
T1 sequence (Q5T5U3 45-169, limits assumed, looked up): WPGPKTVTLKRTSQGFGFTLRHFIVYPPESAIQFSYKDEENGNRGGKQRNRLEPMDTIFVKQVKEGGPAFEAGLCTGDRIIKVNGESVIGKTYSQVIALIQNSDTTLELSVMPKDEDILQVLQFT

[2] = biological target: T2, SHANK1, Q9Y566
T2 sequence (Q9Y566 658-767, limits assumed, looked up): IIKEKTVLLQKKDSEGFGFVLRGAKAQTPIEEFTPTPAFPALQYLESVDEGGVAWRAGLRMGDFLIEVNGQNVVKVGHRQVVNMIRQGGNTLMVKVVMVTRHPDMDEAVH

[3] = biological target: T3, GRIP1_5, Q9Y3R0
T3 sequence (Q9Y3R0 568-668, limits assumed, looked up): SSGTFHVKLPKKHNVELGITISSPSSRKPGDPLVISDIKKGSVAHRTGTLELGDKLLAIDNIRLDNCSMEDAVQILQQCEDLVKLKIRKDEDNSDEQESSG

[4] = biological target: HTRA1, Q92743
[5] = biological target: T4, SYNJ2BP, P57105
T4 sequence (P57105 8-110, limits assumed, looked up): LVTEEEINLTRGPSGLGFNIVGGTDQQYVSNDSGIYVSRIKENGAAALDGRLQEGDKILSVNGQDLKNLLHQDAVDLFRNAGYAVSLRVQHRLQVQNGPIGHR

[6] = biological target: Inadl_4, Q8NI35
[7] = biological target: T5, PDZD7_3, Q9H5P4
T5 sequence (Q9H5P4 857-944, limits assumed, looked up): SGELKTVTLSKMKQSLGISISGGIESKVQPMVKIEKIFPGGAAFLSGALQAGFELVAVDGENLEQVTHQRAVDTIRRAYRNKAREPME

[8] = biological target: T6, TJP3_3, O95049
T6 sequence (O95049 375-456, limits assumed, looked up): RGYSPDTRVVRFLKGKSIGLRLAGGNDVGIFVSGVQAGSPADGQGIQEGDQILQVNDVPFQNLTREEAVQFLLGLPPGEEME

[9] = biological target: T7, APBA3_1, O96018
T7 sequence (O96018 389-490, limits assumed, looked up): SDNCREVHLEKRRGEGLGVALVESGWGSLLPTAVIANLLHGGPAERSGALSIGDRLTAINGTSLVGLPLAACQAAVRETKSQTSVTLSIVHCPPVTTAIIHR

[10] = biological target: T8, FRMPD1, Q5SYB0
T8 sequence (Q5SYB0 52-145, limits assumed, looked up): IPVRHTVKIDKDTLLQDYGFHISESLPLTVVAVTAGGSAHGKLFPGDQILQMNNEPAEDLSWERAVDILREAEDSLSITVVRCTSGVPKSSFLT

[11] = biological target: GRIP2_4, Q9C0E4
[12] = biological target: MAGI2_5, Q86UL8
[13] = biological target: T9, SNTB1, Q13884
T9 sequence (Q13884 107-205, limits assumed, looked up): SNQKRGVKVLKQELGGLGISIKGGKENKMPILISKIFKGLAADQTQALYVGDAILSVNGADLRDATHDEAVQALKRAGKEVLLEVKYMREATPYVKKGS

[14] = biological target: GRID2IP_2, A4D2P6
[15] = biological target: T10, DLG3_2, Q92796
T10 sequence (Q92796 221-321, limits assumed, looked up): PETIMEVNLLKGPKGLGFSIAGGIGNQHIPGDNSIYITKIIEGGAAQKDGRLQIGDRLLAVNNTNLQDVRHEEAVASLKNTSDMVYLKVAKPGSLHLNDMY

[16] = biological target: T11, DLG3_1, Q92796
T11 sequence (Q92796 125-227, limits assumed, looked up): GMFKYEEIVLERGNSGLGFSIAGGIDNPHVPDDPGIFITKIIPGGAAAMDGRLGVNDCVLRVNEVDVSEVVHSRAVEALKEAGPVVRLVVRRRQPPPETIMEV

[17] = biological target: SCRIB_2, Q14160
[18] = biological target: T12, DVL3, Q92997
T12 sequence (Q92997 244-331, limits assumed, looked up): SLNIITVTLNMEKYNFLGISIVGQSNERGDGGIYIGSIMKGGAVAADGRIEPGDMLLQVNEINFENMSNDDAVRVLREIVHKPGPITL

[19] = biological target: T13, APBA2_1, Q99767
T13 sequence (Q99767 563-664, limits assumed, looked up): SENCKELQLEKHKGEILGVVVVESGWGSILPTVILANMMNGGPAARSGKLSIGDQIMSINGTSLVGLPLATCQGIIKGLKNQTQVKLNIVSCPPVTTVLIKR

[20] = biological target: DLG1_2, Q12959
[21] = biological target: Inadl_6, Q8NI35
[22] = biological target: MAGI2_6, Q86UL8
[23] = biological target: PDLIM1, O00151
[24] = biological target: MAST1, Q9Y2H9
[25] = plain residues with an end cap or a label only (N-terminal biotin on a linker: ado-ado)
[26] = modified: phospho on T at position -2 from the C-terminal residue

HTRA1, Q92743, sequence (Q92743 360-477): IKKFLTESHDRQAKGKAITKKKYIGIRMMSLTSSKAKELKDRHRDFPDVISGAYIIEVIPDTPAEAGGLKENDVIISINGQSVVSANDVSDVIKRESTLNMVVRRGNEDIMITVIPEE
GRID2IP_2, A4D2P6, sequence (A4D2P6 272-370): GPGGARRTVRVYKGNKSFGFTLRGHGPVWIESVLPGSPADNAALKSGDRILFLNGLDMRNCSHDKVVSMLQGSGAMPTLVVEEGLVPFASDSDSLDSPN
GRIP2_4, Q9C0E4, sequence (Q9C0E4 446-548): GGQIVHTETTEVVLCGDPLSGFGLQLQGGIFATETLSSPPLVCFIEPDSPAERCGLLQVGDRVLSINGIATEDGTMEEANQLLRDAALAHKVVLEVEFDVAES
Inadl_4, Q8NI35, sequence (Q8NI35 547-651): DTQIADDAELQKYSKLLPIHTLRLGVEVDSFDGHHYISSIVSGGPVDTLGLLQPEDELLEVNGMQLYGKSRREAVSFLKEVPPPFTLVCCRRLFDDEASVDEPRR
MAST1, Q9Y2H9, sequence (Q9Y2H9 962-1065): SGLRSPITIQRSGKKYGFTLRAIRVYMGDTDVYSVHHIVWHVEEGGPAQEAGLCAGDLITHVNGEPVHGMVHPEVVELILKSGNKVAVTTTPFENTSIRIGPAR
MAGI2_6, Q86UL8, sequence (Q86UL8 1141-1229): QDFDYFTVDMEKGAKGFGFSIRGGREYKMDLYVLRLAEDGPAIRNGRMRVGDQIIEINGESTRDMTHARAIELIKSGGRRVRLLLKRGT
SCRIB_2, Q14160, sequence (Q14160 857-960): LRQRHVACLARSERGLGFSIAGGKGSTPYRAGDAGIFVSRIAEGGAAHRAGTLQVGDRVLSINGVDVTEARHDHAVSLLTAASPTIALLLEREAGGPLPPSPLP
Inadl_6, Q8NI35, sequence (Q8NI35 1058-1167): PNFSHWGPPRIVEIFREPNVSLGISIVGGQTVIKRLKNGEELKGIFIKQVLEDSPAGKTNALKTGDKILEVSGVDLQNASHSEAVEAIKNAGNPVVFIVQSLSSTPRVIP
PDLIM1, O00151, sequence (O00151 1-87): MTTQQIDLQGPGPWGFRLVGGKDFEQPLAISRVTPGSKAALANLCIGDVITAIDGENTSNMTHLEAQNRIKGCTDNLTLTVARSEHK
DLG1_2, Q12959, sequence (Q12959 314-412): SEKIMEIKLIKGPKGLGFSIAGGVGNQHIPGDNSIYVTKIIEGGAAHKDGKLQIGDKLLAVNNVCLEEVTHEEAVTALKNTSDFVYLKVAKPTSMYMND
MAGI2_5, Q86UL8, sequence (Q86UL8 915-1017): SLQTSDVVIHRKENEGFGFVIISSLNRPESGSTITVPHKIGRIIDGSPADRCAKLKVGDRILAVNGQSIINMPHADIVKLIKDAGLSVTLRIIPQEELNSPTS

B1: ADRA1D, P25100 (peptide)
chain: DYSNLRETDI
pKd [1, 25]: 3.98 | pKd [2, 25]: below the threshold | pKd [3, 25]: below the threshold | pKd [4, 25]: below the threshold | pKd [5, 25]: 4.43 | pKd [6, 25]: below the threshold | pKd [7, 25]: 4.97 | pKd [8, 25]: below the threshold | pKd [9, 25]: below the threshold | pKd [10, 25]: below the threshold | pKd [11, 25]: below the threshold | pKd [12, 25]: below the threshold | pKd [13, 25]: 5.57 | pKd [14, 25]: below the threshold | pKd [15, 25]: 4.39 | pKd [16, 25]: 3.6 | pKd [17, 25]: 4.73 | pKd [18, 25]: below the threshold | pKd [19, 25]: below the threshold | pKd [20, 25]: 4.74 | pKd [21, 25]: 3.73 | pKd [22, 25]: 4.31 | pKd [23, 25]: below the threshold | pKd [24, 25]: 4.34

B2: TNRC6B, Q9UPQ9 (peptide)
chain: DLLGGGSDSI
pKd [1, 25]: below the threshold | pKd [2, 25]: below the threshold | pKd [3, 25]: below the threshold | pKd [4, 25]: below the threshold | pKd [5, 25]: below the threshold | pKd [6, 25]: below the threshold | pKd [7, 25]: below the threshold | pKd [8, 25]: below the threshold | pKd [9, 25]: below the threshold | pKd [10, 25]: below the threshold | pKd [11, 25]: below the threshold | pKd [12, 25]: below the threshold | pKd [13, 25]: below the threshold | pKd [14, 25]: below the threshold | pKd [15, 25]: 3.99 | pKd [16, 25]: below the threshold | pKd [17, 25]: below the threshold | pKd [18, 25]: below the threshold | pKd [19, 25]: below the threshold | pKd [20, 25]: below the threshold | pKd [21, 25]: below the threshold | pKd [22, 25]: below the threshold | pKd [23, 25]: below the threshold | pKd [24, 25]: 3.85

B3: HPV33-E6_-2P, P06427 (peptide)
chain: SRSRRRETAL
pKd [1, 26]: 4.02 | pKd [2, 26]: below the threshold | pKd [3, 26]: below the threshold | pKd [4, 26]: below the threshold | pKd [5, 26]: below the threshold | pKd [6, 26]: below the threshold | pKd [7, 26]: 3.74 | pKd [8, 26]: below the threshold | pKd [9, 26]: below the threshold | pKd [10, 26]: below the threshold | pKd [11, 26]: below the threshold | pKd [12, 26]: below the threshold | pKd [13, 26]: below the threshold | pKd [14, 26]: below the threshold | pKd [15, 26]: below the threshold | pKd [16, 26]: below the threshold | pKd [17, 26]: below the threshold | pKd [18, 26]: below the threshold | pKd [19, 26]: below the threshold | pKd [20, 26]: below the threshold | pKd [21, 26]: below the threshold | pKd [22, 26]: below the threshold | pKd [23, 26]: below the threshold | pKd [24, 26]: below the threshold

B4: TMEM178A, Q8NBL3 (peptide)
chain: QLKSGRDSTV
pKd [1, 25]: 4 | pKd [2, 25]: below the threshold | pKd [3, 25]: below the threshold | pKd [4, 25]: 4.4 | pKd [5, 25]: 4.48 | pKd [6, 25]: below the threshold | pKd [7, 25]: 4.19 | pKd [8, 25]: 3.5 | pKd [9, 25]: below the threshold | pKd [10, 25]: below the threshold | pKd [11, 25]: below the threshold | pKd [12, 25]: below the threshold | pKd [13, 25]: 4.1 | pKd [14, 25]: 3.54 | pKd [15, 25]: 4.35 | pKd [16, 25]: 3.82 | pKd [17, 25]: 3.69 | pKd [18, 25]: below the threshold | pKd [19, 25]: 3.52 | pKd [20, 25]: 4.64 | pKd [21, 25]: below the threshold | pKd [22, 25]: 3.85 | pKd [23, 25]: below the threshold | pKd [24, 25]: 4.02

B5: CLDN20, P56880 (peptide)
chain: NSTHNLKDYV
pKd [1, 25]: 3.89 | pKd [2, 25]: below the threshold | pKd [3, 25]: below the threshold | pKd [4, 25]: 3.64 | pKd [5, 25]: below the threshold | pKd [6, 25]: below the threshold | pKd [7, 25]: below the threshold | pKd [8, 25]: below the threshold | pKd [9, 25]: below the threshold | pKd [10, 25]: below the threshold | pKd [11, 25]: below the threshold | pKd [12, 25]: below the threshold | pKd [13, 25]: below the threshold | pKd [14, 25]: below the threshold | pKd [15, 25]: below the threshold | pKd [16, 25]: below the threshold | pKd [17, 25]: below the threshold | pKd [18, 25]: below the threshold | pKd [19, 25]: below the threshold | pKd [20, 25]: 3.5 | pKd [21, 25]: below the threshold | pKd [22, 25]: below the threshold | pKd [23, 25]: below the threshold | pKd [24, 25]: 3.65

B6: SORCS3, Q9UPU3 (peptide)
chain: TKEIPNCTSV
pKd [1, 25]: 3.86 | pKd [2, 25]: 3.92 | pKd [3, 25]: below the threshold | pKd [4, 25]: 3.82 | pKd [5, 25]: 4.72 | pKd [6, 25]: below the threshold | pKd [7, 25]: 4.82 | pKd [8, 25]: 3.54 | pKd [9, 25]: below the threshold | pKd [10, 25]: below the threshold | pKd [11, 25]: below the threshold | pKd [12, 25]: 3.99 | pKd [13, 25]: 4.25 | pKd [14, 25]: 4.29 | pKd [15, 25]: 4.22 | pKd [16, 25]: 3.64 | pKd [17, 25]: 4.44 | pKd [18, 25]: below the threshold | pKd [19, 25]: below the threshold | pKd [20, 25]: 4.43 | pKd [21, 25]: below the threshold | pKd [22, 25]: 4.43 | pKd [23, 25]: below the threshold | pKd [24, 25]: 4.99
